Data: patent US20250136720A1 (Boehringer Ingelheim, published 2025)
Numbering of substitutions follows the chain as printed. Blank lines part the entries; values can stand above or below the binder they belong to.

Assays:
[1] = biological target: human FAP protein (human, UniProt Q12884 26-760, limits assumed); assay: method not stated
[2] = biological target: T1, mouse FAP protein (mouse, UniProt P97321 1-761); assay: method not stated
T1 construct: also called murine FAP
T1 sequence (P97321 other isoform, or with tags, fused parts or gaps limits assumed, form in doubt): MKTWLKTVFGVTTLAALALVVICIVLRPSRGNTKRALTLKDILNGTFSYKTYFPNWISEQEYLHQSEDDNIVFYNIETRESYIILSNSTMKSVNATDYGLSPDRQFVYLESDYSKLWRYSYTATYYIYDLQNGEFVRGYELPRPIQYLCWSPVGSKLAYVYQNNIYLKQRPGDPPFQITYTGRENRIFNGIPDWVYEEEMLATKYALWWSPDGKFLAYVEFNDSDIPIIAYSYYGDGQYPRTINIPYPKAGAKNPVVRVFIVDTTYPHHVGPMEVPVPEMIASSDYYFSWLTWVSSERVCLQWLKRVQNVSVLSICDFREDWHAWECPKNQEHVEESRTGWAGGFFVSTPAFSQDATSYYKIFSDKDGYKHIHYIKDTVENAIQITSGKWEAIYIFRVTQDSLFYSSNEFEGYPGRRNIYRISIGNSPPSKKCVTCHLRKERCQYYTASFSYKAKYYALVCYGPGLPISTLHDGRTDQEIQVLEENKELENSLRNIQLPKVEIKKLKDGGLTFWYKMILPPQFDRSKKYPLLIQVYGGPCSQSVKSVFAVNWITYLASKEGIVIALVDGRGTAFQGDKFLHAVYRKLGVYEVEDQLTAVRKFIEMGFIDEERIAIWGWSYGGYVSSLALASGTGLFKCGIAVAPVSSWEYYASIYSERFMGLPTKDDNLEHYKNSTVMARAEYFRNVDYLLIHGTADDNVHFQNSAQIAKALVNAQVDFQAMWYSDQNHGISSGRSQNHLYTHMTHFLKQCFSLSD

Chain of human FAP protein (Q12884 26-760 limits assumed): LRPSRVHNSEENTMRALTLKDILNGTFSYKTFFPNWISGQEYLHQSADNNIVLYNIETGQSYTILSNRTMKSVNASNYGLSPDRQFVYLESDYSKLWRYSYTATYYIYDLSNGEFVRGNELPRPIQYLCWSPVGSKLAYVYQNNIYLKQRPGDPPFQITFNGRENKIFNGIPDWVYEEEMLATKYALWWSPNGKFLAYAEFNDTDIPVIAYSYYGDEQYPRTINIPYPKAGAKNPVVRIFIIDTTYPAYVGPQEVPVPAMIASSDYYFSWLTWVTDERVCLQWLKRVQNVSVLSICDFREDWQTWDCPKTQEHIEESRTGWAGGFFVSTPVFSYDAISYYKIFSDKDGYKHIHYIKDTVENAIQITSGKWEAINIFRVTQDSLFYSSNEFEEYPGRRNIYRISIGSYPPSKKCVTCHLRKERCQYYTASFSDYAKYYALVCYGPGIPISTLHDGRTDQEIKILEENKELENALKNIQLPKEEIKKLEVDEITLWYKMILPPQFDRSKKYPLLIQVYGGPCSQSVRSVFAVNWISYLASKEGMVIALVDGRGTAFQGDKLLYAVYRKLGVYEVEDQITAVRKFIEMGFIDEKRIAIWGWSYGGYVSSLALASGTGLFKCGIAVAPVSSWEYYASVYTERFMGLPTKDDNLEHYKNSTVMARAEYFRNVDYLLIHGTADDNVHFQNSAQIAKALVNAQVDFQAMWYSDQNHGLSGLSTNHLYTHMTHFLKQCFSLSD

B1: FAP-C3 parental (scFv)
scFv: EIVLTQSPGTLSLSPGERATLSCRASQSVGHYLAWYQQKPGQAPRLLIYDASNRAIDIPDRFSGSGSGTEFTLTISRLEPEDFAVYYCQQYYNNWPPLTFGGGTKVEIKGGGGSGGGGSGGGGSGGGGSDVQLVESGGGVVRPGESLTLSCAASGFTFSNYDMGWVRQAPGEGLEWVSGIRGRGGSTYYADSVKGRFTISRDSSKNTLYLQMNSLRAEDTAVYYCAKENNRHSFFEYWGLGTLVTVSS
notes: the format in the KD assay is told only as 'SCFV'; also called FAP-C3SCFVWT; FAP #4
- Kd [1]: 0.036 nM
- Kd [2]: 33 nM

B3: FAP-A11 parental (scFv)
scFv: EIVLTQSPGTLSLSPGERATLSCRASQPINNYLAWYQQKPGQAPRLLIFSASNRATGIPDRFSGSGSGTEFTLTISSLEPEDFAVYYCQQYYDWPPYTFGGGTKVEIKGGGGSGGGGSGGGGSGGGGSDVQLVESGGGLVQPGGSLRLSCAASGFSMSNFAMTWVRQAPGEGLEWVSGIRGSGTTYYADSVKGRFTVSRDNSKNTLYLQMNSLRAEDTAIYYCAKTWGTEYFDYWGLGTLVTVSS
notes: the format in the KD assay is told only as 'SCFV'; also called FAP-A11SCFV(WT); FAP #1
- Kd [1]: 1.04 nM
- Kd [2]: < 0.02 nM

B5: FAP-A11 VK3-VH13 (FAP #2) (scFv)
scFv: B3 scFv with N30R, N31S, D189E, N201Q, N204Q, N211Q
notes: format in the KD assay not described; also called FAP-A11VK3VH13 (RS, QQQ); A11 VK3/VH3
- Kd [1]: 0.538 nM
- Kd [2]: < 0.02 nM

B6: FAP-A11 VK7-VH1 (FAP #3) (scFv)
scFv: B3 scFv with N30S, N31S, D189E
notes: format in the KD assay not described; also called FAP-A11VK7VH1 (SS, NNN)
- Kd [1]: 1.5 nM
- Kd [2]: < 0.02 nM

More lines, now with the values ahead:

- Kd [1]: 0.024 nM
- Kd [2]: 4.6 nM
B2: FAP-C3 VK1-VH14 (FAP #5) (scFv)
scFv: B1 scFv with N94D, N160S, D191E, D202E, N230E
notes: format in the KD assay not described; also called FAP-C3VK1VH14 (ND, SY, ES, ES, ER); FAP-C3-VK1-VH4

- Kd [1]: 0.199 nM
- Kd [2]: < 0.02 nM
B4: FAP-A11 VK3-VH1 (scFv)
scFv: B3 scFv with N30R, N31S, D189E
notes: also called FAP-A11VK3VH1 (RS, NNN)
